Residue numbers refer to the chain shown, from its start.
B1: 268Leu (protein, UniProt P62694 18-513, looked up, variant R268L)
Exoglucanase 1: QSACTLQSETHPPLTWQKCSSGGTCTQQTGSVVIDANWRWTHATNSSTNCYDGNTWSSTLCPDNETCAKNCCLDGAAYASTYGVTTSGNSLSIGFVTQSAQKNVGARLYLMASDTTYQEFTLLGNEFSFDVDVSQLPCGLNGALYFVSMDADGGVSKYPTNTAGAKYGTGYCDSQCPRDLKFINGQANVEGWEPSSNNANTGIGGHGSCCSEMDIWEANSISEALTPHPCTTVGQEICEGDGCGGTYSDNLYGGTCDPDGCDWNPYRLGNTSFYGPGSSFTLDTTKKLTVVTQFETSGAINRYYVQNGVTFQQPNAELGSYSGNELNDDYCTAEEAEFGGSSFSDKGGLTQFKKATSGGMVLVMSLWDDYYANMLWLDSTYPTNETSSTPGAVRGSCSTSSGVPAQVESQSPNAKVTFSNIKFGPIGSTGNPSGGNPPGGNRGTTTTRRPATTTGSSPGPTQSHYGQCGGIGYSGPTVCASGTTCQVLNPYYSQCL
B2: 268Cys (protein, UniProt P62694 18-513, looked up, variant R268C)
Exoglucanase 1: B1 Exoglucanase 1 with L251C
B3: 268Phe (protein, UniProt P62694 18-513, looked up, variant R268F)
Exoglucanase 1: B1 Exoglucanase 1 with L251F
B4: 268Pro (protein, UniProt P62694 18-513, looked up, variant R268P)
Exoglucanase 1: B1 Exoglucanase 1 with L251P
B5: 268Ala (protein, UniProt P62694 18-513, looked up, variant R268A)
Exoglucanase 1: B1 Exoglucanase 1 with L251A
B6: 411Pro (protein, UniProt P62694 18-513, looked up, variant R411P)
Exoglucanase 1: B1 Exoglucanase 1 with L251R, R394P
B7: 411Val (protein, UniProt P62694 18-513, looked up, variant R411V)
Exoglucanase 1: B1 Exoglucanase 1 with L251R, R394V
B8: 411Leu (protein, UniProt P62694 18-513, looked up, variant R411L)
Exoglucanase 1: B1 Exoglucanase 1 with L251R, R394L
B9: 411Met (protein, UniProt P62694 18-513, looked up, variant R411M)
Exoglucanase 1: B1 Exoglucanase 1 with L251R, R394M
B10: 411Gly (protein, UniProt P62694 18-513, looked up, variant R411G)
Exoglucanase 1: B1 Exoglucanase 1 with L251R, R394G
B11: 268A+411Thr (protein, UniProt P62694 18-513, looked up, variant R268A R411T)
Exoglucanase 1: B1 Exoglucanase 1 with L251A, R394T
B12: 268A+411Ile (protein, UniProt P62694 18-513, looked up, variant R268A R411I)
Exoglucanase 1: B1 Exoglucanase 1 with L251A, R394I
B13: 268A+411Leu (protein, UniProt P62694 18-513, looked up, variant R268A R411L)
Exoglucanase 1: B1 Exoglucanase 1 with L251A, R394L
B14: 268A+411Cys (protein, UniProt P62694 18-513, looked up, variant R268A R411C)
Exoglucanase 1: B1 Exoglucanase 1 with L251A, R394C
B15: 268A+411Val (protein, UniProt P62694 18-513, looked up, variant R268A R411V)
Exoglucanase 1: B1 Exoglucanase 1 with L251A, R394V
B16: 268A+411Met (protein, UniProt P62694 18-513, looked up, variant R268A R411M)
Exoglucanase 1: B1 Exoglucanase 1 with L251A, R394M
B17: 268Gln+411A (protein, UniProt P62694 18-513, looked up, variant R268Q R411A)
Exoglucanase 1: B1 Exoglucanase 1 with L251Q, R394A
B18: 268Pro+411A (protein, UniProt P62694 18-513, looked up, variant R268P R411A)
Exoglucanase 1: B1 Exoglucanase 1 with L251P, R394A
B19: 268Ser+411A (protein, UniProt P62694 18-513, looked up, variant R268S R411A)
Exoglucanase 1: B1 Exoglucanase 1 with L251S, R394A
B20: 268Trp+411A (protein, UniProt P62694 18-513, looked up, variant R268W R411A)
Exoglucanase 1: B1 Exoglucanase 1 with L251W, R394A
B21: 268Phe+411A (protein, UniProt P62694 18-513, looked up, variant R268F R411A)
Exoglucanase 1: B1 Exoglucanase 1 with L251F, R394A
B22: 268Glu+411A (protein, UniProt P62694 18-513, looked up, variant R268E R411A)
Exoglucanase 1: B1 Exoglucanase 1 with L251E, R394A
B23: 268Arg+411A (protein, UniProt P62694 18-513, looked up, variant R411A)
Exoglucanase 1: B1 Exoglucanase 1 with L251R, R394A
B24: 268His+411A (protein, UniProt P62694 18-513, looked up, variant R268H R411A)
Exoglucanase 1: B1 Exoglucanase 1 with L251H, R394A
B25: 268Lys+411A (protein, UniProt P62694 18-513, looked up, variant R268K R411A)
Exoglucanase 1: B1 Exoglucanase 1 with L251K, R394A
B26: 268Val+411A (protein, UniProt P62694 18-513, looked up, variant R268V R411A)
Exoglucanase 1: B1 Exoglucanase 1 with L251V, R394A
B27: 268Cys+411A (protein, UniProt P62694 18-513, looked up, variant R268C R411A)
Exoglucanase 1: B1 Exoglucanase 1 with L251C, R394A

Assay: 4-MUL cellobiose tolerance/inhibition assay, dose-response IC50 (Example 2)
Type: biochemical
Conditions: 268 single substitution; averaged IC50 from Tables 8-11; read-out: 268— Measured (merged IC50)
Outline: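 IC50 reflects cellobiose concentration halving activity, fitted by four-parameter dose-response with zero activity fixed at knockout-strain background. Assays used 4-MUL (0.5 mM) with enzyme at 5 μg/mL or less, pH 6 MES, 25 mM gluconolactone blocking BG, cellobiose up to 100 mM; 4-MU fluorescence read.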

Molecule	IC50 [mM]
B1	0.45
B2	0.38
B3	0.48
B4	0.52
B5	0.57

Same assay, conditions: 411 single substitution; averaged IC50 from Tables 8-11; read-out: 411— Measured (merged IC50)

Molecule	IC50 [mM]
B6	1.13
B7	3.16
B8	6.54
B9	3.34
B10	1.81

Same assay, conditions: double mutant 268A+411X; averaged IC50 from Tables 8-11; read-out: 268A+411— Measured (merged IC50)

Molecule	IC50 [mM]
B11	11.7
B12	32.7
B13	22.7
B14	10.2
B15	14.8
B16	11.7

Same assay, conditions: double mutant 268A+411X; expected IC50 (additive values of single mutations); read-out: 268A+411— Expected IC50

Molecule	IC50 [mM]
B11	2.54
B13	7.12
B14	1.74
B15	3.73
B16	3.91

Same assay, conditions: double mutant 268A+411X; measured versus expected additive IC50

Molecule	synergy of double mutant (measured vs expected additive IC50)
B11	4.6
B13	3.2
B14	5.8
B15	4.0
B16	3.0

Same assay, conditions: double mutant 268X+411A; averaged IC50 from Tables 8-11; read-out: 268_+411A Measured (merged IC50)

Molecule	IC50 [mM]
B17	9.13
B18	8.57
B19	9.57
B20	9.97
B21	9.7
B22	16.7
B23	1.22
B24	5.27
B25	6.14
B26	9.49

Same assay, conditions: double mutant 268X+411A; expected IC50 (additive values of single mutations)

Molecule	268 +411A Expected IC50 [mM]
B27	1.56
B18	1.7
B19	1.67
B20	1.69
B21	1.65
B22	1.8
B23	1.22
B24	1.41
B25	1.29
B26	1.57

Same assay, conditions: double mutant 268X+411A; measured versus expected additive IC50

Molecule	268_+411A Synergistic**↑
B27	14.4
B18	5.1
B19	5.7
B20	5.9
B21	5.9
B22	9.3
B23	1.0
B24	3.7
B25	4.8
B26	6.0

Assay: 4-MUL assay, specific activity (Example 2)
Type: biochemical
Conditions: 268 single substitution
Outline: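 Specific activity derived from 4-MU standard curves and HPLC-quantified enzyme. Initial rates were taken over the first 15 min, with an endpoint read at 1 h (pH 10 carbonate quench), all at ex 365/em 450 nm. Conditions: 0.5 mM 4-MUL, 5 μg/mL enzyme, MES pH 6, 25 mM gluconolactone, cellobiose optional.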

Molecule	268— Measured Specific Activity (SA) [μmol 4 MU/min/mg CBH I]	268— Δ SA* (change in specific activity; ratio of variant: WT)
B1	1.83	2.4
B2	1.81	2.4
B3	–	0.5
B4	3.38	4.4
B5	2.97	3.9

Same assay, conditions: 411 single substitution

Molecule	411— Measured Specific Activity (SA) [μmol 4 MU/min/mg CBH I]	411— Δ SA* (change in specific activity; ratio of variant: WT)
B6	0.70	0.9
B7	0.65	0.9
B8	–	0.2
B9	0.57	0.7
B10	0.60	0.8

Same assay, conditions: double mutant 268A+411X

Molecule	268A+411— Measured Specific Activity (SA) [μmol 4 MU/min/mg CBH I]	268A+411— Δ SA* (change in specific activity; ratio of variant: WT)
B11	1.78	2.3
B12	–	0.5
B13	–	1.3
B14	1.85	2.4
B15	1.78	2.3
B16	1.78	2.3

Same assay, conditions: double mutant 268X+411A

Molecule	268— +411 A Δ SA* (change in specific activity; ratio of variant: WT)	268— +411 A Measured Specific Activity (SA) [μmol 4 MU/min/mg CBH I]
B27	0.2	–
B17	2.8	2.13
B18	2.8	2.16
B19	2.1	1.59
B20	1.8	1.37
B21	2.7	2.07
B22	0.8	0.58
B23	0.7	0.53
B24	1.8	1.35
B25	0.7	–
B26	1.9	1.43

Source: patent US20140287471A1, “VARIANT CBH I POLYPEPTIDES WITH REDUCED PRODUCT INHIBITION” (BP CORPORATION NORTN AMERICA INC., priority 2011, published 2014)
